Measurements reported in PMC10187669.
Read-outs that look alike come from different tables or passages of the source.

B1: A oligonucleotide: chicken beta-actin zipcode unmodified (ssRNA)
RNA: ACCGGACUGUUACCAACACCCACACCCC
B2: B oligonucleotide: zipcode m6A site 1202 (GGm6ACU) (ssRNA)
RNA: ACCGGACUGUUACCAACACCCACACCCC
modifications: m6A at position 6

Tests used:
ZBP1 KH3-KH4 (ZBP1KH34) [1] = target: T1, ZBP1 KH3-KH4 (ZBP1KH34) (Gallus gallus, UniProt O42254 404-561); assay: EMSA
ZBP1 KH3-KH4 (ZBP1KH34) [2] = target: T1, ZBP1 KH3-KH4 (ZBP1KH34); assay: EMSA; remark: listed apart in the source

T1 sequence (O42254 404-561): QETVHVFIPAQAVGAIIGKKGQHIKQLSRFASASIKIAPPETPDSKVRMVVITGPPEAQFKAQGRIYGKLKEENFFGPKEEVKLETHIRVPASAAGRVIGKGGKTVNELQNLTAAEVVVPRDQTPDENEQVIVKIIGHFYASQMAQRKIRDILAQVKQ

Binder	binding result (ZBP1 KH3-KH4 (ZBP1KH34) [1])	binding result (ZBP1 KH3-KH4 (ZBP1KH34) [2])
B1	binds	
B2		binds
